Laboratory results from patent publication US20150010538A1 (AbbVie / Abbott, published 2015).
Substitutions are numbered along the chain they refer to. In names and notes the source's numbering stands. Where two headings read alike, the source gives them in different places.

Key:
[1] = molecular target: T1, recombinant human CD25 (IL2-Rα) (human, UniProt P01589 22-213, limits assumed); assay: competition ELISA: binding of biotinylated wild type daclizumab IgG to CD25 in the presence of titrated competitor Fab, O.D. 415
T1 construct: Bought recombinant soluble protein; also called IL2 receptor α chain; recombinant soluble human CD25
T1 sequence (looked up): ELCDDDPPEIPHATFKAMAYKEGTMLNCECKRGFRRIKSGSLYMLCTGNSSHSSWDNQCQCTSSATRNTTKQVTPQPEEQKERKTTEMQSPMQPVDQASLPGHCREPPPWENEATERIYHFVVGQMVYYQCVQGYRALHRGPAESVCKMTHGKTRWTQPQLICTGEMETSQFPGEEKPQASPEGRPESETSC
Description: Wells of 96-well ELISA plates (Nunc-Immuno MaxiSorp plates, Nalge Nunc, Rochester, N.Y.) were coated with 100 μL of 0.2 μg/mL CD25 (Pepro Tech Inc., Rocky Hill, N.J.) in 0.2 M sodium carbonate-bicarbonate buffer (pH 9.4, Pierce, Rockford, Ill.) overnight at 4° C. After washing with Wash Buffer, wells were blocked with 200 μL of Superblock Blocking Buffer (Pierce, Rockford, Ill.) for 30 min and then washed. […] The plate was then washed with washing buffer three times. After washing, 100 μL of 1 μg/mL HRP-conjugated Streptavidin (Pierce) diluted in ELISA buffer was added to each well. After 30 minutes of incubation at room temperature, plates were washed and bound antibodies were detected by addition of ABTS substrate (Kirkegaard & Perry Laboratories, Gaithersburg, Md.). […] Binding inhibition curves were fitted using nonlinear regression with the software [sequence]

[2] = molecular target: T1, recombinant human CD25 (IL2-Rα); assay: ELISA competition assay on CD25 (format of Section 6.3.1.1: competitor antibody titrated against biotinylated daclizumab on plate-coated CD25), OD415
Description: (§1) Wells of 96-well ELISA plates (Nunc-Immuno MaxiSorp plates, Nalge Nunc, Rochester, N.Y.) were coated with 100 μL of 0.2 μg/mL CD25 (Pepro Tech Inc., Rocky Hill, N.J.) in 0.2 M sodium carbonate-bicarbonate buffer (pH 9.4, Pierce, Rockford, Ill.) overnight at 4° C. After washing with Wash Buffer, wells were blocked with 200 μL of Superblock Blocking Buffer (Pierce, Rockford, Ill.) for 30 min and then washed. […] The plate was then washed with washing buffer three times. After washing, 100 μL of 1 μg/mL HRP-conjugated Streptavidin (Pierce) diluted in ELISA buffer was added to each well. After 30 minutes of incubation at room temperature, plates were washed and bound antibodies were detected by addition of ABTS substrate (Kirkegaard & Perry Laboratories, Gaithersburg, Md.). […] PRISM (GraphPad, San Diego) and reported as IC₅₀ wild type/IC₅₀ mutant (fold improvement over wild type control).

[3] = molecular target: T1, recombinant human CD25 (IL2-Rα); assay: as above; remark: listed apart in the source
Description: as §1

[4] = molecular target: T1, recombinant human CD25 (IL2-Rα); assay: competitive ELISA on plate-coated CD25; competitor biotinylated daclizumab
Description: as §1

[5] = molecular target: T1, recombinant human CD25 (IL2-Rα); assay: competition ELISA on plate-coated CD25; competitor biotinylated daclizumab
Description: as §1

B1: VSR-SN Fab (Fab, V domains shown)
VH: QVQLVQSGAEVKKPGSSVKVSCKASGYTFTSYRMHWVRQAPGQGLEWIGYIVPSRGYTEYNQKFKDKATITADESTNTAYMELSSLRSEDTAVYYCARGGGVFDYWGQGTLVTVSS
VL: DIQMTQSPSTLSASVGDRVTITCSASSSISYMHWYQQKPGKAPKLLIYTTSNLASGVPARFSGSGSGTEFTLTISSLQPDDFATYYCHQRSTYPLTFGQGTKVEVK
notes: also called VSR-SN in Fab; copies: 1 + 1
Q: Which “IC50 (read off the curve)” value [1] does the source give for B1 here?
A: ~30 nM

B2: NuhuTac (rehumanized anti-Tac) (antibody, V domains shown)
VH: B1 VH with Q1E, S16A, V52N, R55T, I70M, E74K, T76I, N77S
VL: EIVLTQSPATLSLSPGERATLTCSASSSISYMHWFQQKPGQAPRLLIYTTSNLASGIPARFSGSGSGTDYTLTISSLEPEDFAVYYCHQRSTYPLTFGQGTKVEIK
notes: VH on human framework R3.5H5G, VL on ka3d1; N-terminal Glu in VH; also called rehumanized antibody
Q: For B2, which EC50 [2] is on record?
A: 0.49 µg/mL

Q: What about the EC50 [3] of the same binder?
A: 0.71 µg/mL

B3: daclizumab VH variant RRGFE (antibody, IgG1, name in Kabat numbering, V domains shown)
VH: B1 VH with V52R, S54R, R55G, Y57F
VL: B1 VL
notes: VH library clone, soluble IgG1
Q: B3 was tested. Which “fold affinity over the parental antibody” value [4] did it give?
A: ~10 fold

B4: daclizumab VH variant RKGFE (antibody, IgG1, name in Kabat numbering, V domains shown)
VH: B1 VH with V52R, S54K, R55G, Y57F
VL: B1 VL
notes: as for B3
Q: With B4 as the binder, how does the “fold affinity over the parental antibody” value [4] read?
A: ~10 fold

B5: daclizumab VH variant SNKYL (antibody, IgG1, name in Kabat numbering, V domains shown)
VH: B1 VH with V52S, S54N, R55K, E59L
VL: B1 VL
notes: as for B3
Q: With B5 as the binder, how does the “fold affinity over the parental antibody” value [4] read?
A: ~10 fold

B6: daclizumab VL S29R-S31T (antibody, IgG1, V domains shown)
VH: B1 VH with V52N, R55T
VL: B1 VL with S28R, S30T
notes: Soluble IgG1/kappa; also called R29T31
Q: With B6 as the binder, how does the “fold improvement in binding over daclizumab” value [5] read?
A: ~2 fold

B7: daclizumab VH and NuhuTacVL (antibody, V domains shown)
VH: B1 VH with V52N, R55T
VL: B2 VL
Q: With B7 as the binder, how does the EC50 [2] read?
A: 1.18 µg/mL

B8: NuhuTacVH with daclizumabVL (antibody, V domains shown)
VH: B1 VH with Q1E, S16A, V52N, R55T, I70M, E74K, T76I, N77S
VL: B1 VL
Q: Which EC50 [2] does the source give for B8 here?
A: 0.47 µg/mL

B9: daclizumab VH variant RKGFN (antibody, IgG1, name in Kabat numbering, V domains shown)
VH: B1 VH with V52R, S54K, R55G, Y57F, E59N
VL: B1 VL
notes: as for B3
Q: Which “fold affinity over the parental antibody” value [4] does the source give for B9 here?
A: ~10 fold

B10: daclizumab VH variant RRKFE (antibody, IgG1, name in Kabat numbering, V domains shown)
VH: B1 VH with V52R, S54R, R55K, Y57F
VL: B1 VL
notes: as for B3
Q: B10 was tested. Which “fold affinity over the parental antibody” value [4] did it give?
A: ~10 fold

B11: daclizumab VH variant QRKFH (antibody, IgG1, name in Kabat numbering, V domains shown)
VH: B1 VH with V52Q, S54R, R55K, Y57F, E59H
VL: B1 VL
notes: as for B3
Q: Which “fold affinity over the parental antibody” value [4] does the source give for B11 here?
A: ~10 fold
